These are literature values, as cited in paper PMC7017177.

As usually defined, the pKd is −log10 of the Kd, conventionally taken in molar units.

pKd: −log10 of the molar value.

The data set addresses CTLA-4 (Homo sapiens) (UniProt P16410).
Sequence of UniProt P16410 (P16410 36-161): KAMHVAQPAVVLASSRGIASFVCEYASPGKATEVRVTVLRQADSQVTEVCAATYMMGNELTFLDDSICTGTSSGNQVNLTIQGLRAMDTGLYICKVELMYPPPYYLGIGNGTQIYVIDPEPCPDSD

Regarding Tremelimumab, the pKd was 9.55.
